Test [1] concerns the target T1, Coxsackievirus A6 (CVA6) A-particle (Coxsackievirus A6 strain TW-2007-00141).
T1 chain 1: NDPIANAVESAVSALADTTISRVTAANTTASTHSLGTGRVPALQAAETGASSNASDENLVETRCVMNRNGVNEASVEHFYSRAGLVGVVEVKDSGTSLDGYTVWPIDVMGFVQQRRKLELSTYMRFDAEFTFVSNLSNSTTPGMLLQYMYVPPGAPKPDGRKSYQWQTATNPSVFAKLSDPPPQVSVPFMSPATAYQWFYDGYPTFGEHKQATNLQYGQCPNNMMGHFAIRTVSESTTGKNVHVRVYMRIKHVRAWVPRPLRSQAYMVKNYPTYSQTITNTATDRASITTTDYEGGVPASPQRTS
T1 chain 2: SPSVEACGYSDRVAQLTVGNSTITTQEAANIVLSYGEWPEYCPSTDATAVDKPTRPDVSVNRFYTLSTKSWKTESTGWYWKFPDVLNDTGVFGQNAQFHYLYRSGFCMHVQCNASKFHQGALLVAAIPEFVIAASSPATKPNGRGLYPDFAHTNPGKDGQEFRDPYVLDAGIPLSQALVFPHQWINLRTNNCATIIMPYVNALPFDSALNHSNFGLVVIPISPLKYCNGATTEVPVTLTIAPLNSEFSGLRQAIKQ
T1 chain 3: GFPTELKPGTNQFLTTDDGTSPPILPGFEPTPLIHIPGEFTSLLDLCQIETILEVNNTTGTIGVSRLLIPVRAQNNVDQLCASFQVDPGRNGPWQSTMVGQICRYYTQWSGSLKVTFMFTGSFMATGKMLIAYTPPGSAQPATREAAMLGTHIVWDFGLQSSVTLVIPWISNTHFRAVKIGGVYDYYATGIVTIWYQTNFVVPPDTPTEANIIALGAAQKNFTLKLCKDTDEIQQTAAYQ
Nature of the test: SPR.

The target in test [2] is T1, Coxsackievirus A6 (CVA6) A-particle. The experiment in a line: SPR. On the technique in general: SPR reads the build-up and loss of mass on a sensor chip optically.
The target in test [3] is T2, Coxsackievirus A6 (CVA6) procapsid (Coxsackievirus A6 strain TW-2007-00141).
T2 chain 1: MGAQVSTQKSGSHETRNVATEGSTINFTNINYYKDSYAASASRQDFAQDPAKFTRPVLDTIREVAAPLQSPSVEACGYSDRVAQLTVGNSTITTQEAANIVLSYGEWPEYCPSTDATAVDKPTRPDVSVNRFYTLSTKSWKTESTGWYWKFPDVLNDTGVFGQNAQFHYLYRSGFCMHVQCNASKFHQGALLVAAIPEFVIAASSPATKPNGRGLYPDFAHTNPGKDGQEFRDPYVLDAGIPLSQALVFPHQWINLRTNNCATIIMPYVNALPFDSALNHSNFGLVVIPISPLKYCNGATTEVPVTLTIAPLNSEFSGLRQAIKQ
T2 chain 2: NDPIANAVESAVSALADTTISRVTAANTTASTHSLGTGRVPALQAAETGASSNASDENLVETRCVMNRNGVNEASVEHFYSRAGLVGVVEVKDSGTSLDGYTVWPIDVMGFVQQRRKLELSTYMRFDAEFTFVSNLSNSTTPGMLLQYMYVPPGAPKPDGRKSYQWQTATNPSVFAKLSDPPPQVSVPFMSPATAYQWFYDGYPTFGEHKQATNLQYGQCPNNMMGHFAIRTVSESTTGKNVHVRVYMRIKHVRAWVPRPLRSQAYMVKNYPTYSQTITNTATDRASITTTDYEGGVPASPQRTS
T2 chain 3: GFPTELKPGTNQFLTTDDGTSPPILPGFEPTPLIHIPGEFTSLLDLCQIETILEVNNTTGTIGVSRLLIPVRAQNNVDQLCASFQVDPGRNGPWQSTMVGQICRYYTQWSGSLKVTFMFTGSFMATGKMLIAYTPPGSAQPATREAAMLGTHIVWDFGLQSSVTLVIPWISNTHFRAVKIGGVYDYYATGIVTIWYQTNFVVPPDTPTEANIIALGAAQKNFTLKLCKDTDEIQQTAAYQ
The experiment in a line: ELISA. (In general: An ELISA detects its analyte on a solid surface through an enzyme-linked reagent.)

The target of test [4] is T1, Coxsackievirus A6 (CVA6) A-particle. The experiment in a line: SPR.

B1: neutralizing monoclonal antibody 1D5 (antibody, V domains shown)
VH: EVQLVESGGGLVKPGGSLKLSCAASGFAFSTYDMSWVRQTPEKRLELVAHISSGGGYIYYPDTVKGRFTISRDNAKNTLYLQMSSLKSEDTAMYYCTRQKGLYYGFDYWGQGTTLTVSS
VL: DIVMTQSHKFMSTSVGDRVSITCKASQDVNTAVAWYQQRPGQSPKLLIYSASYRYTGVPDRFTGSGSGTDFTFTISSVQAEDLAVYYCQQHYTTPHTFGGGTKLEIK
For orientation: koff means the first-order rate constant of dissociation. Low readings indicate slow dissociation, high ones fast dissociation. As a reminder, the EC50 is the concentration giving half of the maximal effect. As usually defined, the Kd is the equilibrium constant for the complex coming apart. B1 came in with a Ka in test [1] of 2.41e+08 M⁻¹. The off-rate (koff) in test [2] is 0.000634 s⁻¹. For the same molecule, a half-maximal effect in test [3] (EC50) was put at 0.069 µg/mL. In addition, in test [4], the affinity, expressed as Kd, was 4.14 nM.

The record behind these values is article PMC5593947 (2017).
